The record followed here is patent US20180371460, “Depletion of Abundant Serum Proteins to Facilitate Biomarker Discovery” (UNIVERSITY OF UTAH RESEARCH FOUNDATION, published 2018).

Data set [1] deals with T1, Human serum albumin (HSA), denatured (Homo sapiens, UniProt P02768 P02768:25-609). The experiment in a line: EMSA; tested in lane 7, not listed among binders; PBS pH 6, 50 mM DTT, 1% SDS. The settings on record: tags: none; denatured with 1% surfactant and reduced with DTT or TCEP; label: 5'-fluorescein. As for the experimental part: (§1) Gel shift assays were then performed to determine which of these nucleic acids would bind to HSA under denaturing and reducing conditions. Specifically, 40 nmol of the fluorescein labeled DNA was incubated with 3 μM denatured HSA in PBS (pH=6) containing 50 mM fresh DTT and 1% SDS at room temperature for 1 hr. The samples were then run on an 8% nondenaturing gel (PBS pH=6, 0.1% SDS) at 100 V for 1 hour at 4° C. The gels were imaged using a Typhoon FLA 9500 gel imager using a 473 nm laser and an LPB filter. FIG. 12 is a representative gel showing the results of the gel shaft assays for the fluorescein labeled forms of the following nucleic acids: 35 (lane 1), 36 (lane 2), 40 (lane 3), H1 (lane 4), H2 (lane 5), H3 (lane 6) and H5 (lane 7).
T1 sequence (P02768 25-609, one chain of several): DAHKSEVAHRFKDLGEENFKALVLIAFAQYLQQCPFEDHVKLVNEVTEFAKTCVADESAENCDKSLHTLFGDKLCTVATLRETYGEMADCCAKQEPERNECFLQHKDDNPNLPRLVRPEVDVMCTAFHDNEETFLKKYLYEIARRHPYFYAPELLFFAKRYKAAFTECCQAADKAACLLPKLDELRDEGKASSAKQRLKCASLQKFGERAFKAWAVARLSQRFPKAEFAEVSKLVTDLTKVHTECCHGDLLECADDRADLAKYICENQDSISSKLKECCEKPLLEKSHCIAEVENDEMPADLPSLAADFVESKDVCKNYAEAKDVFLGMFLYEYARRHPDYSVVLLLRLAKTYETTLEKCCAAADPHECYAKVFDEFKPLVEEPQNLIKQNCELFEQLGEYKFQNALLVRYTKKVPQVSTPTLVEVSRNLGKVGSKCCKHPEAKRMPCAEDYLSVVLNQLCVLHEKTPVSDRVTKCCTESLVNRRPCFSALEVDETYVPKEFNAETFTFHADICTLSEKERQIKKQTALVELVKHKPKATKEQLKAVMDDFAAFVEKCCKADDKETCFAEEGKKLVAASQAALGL
A general note: Mobility shift assays separate free from complexed probe on a gel.

The target in data set [2] is T1, Human serum albumin (HSA), denatured. Nature of the data set: pulldown; 1% SDS or Tween 80 with 50 mM DTT, or 1% Tween 80 with 25 mM TCEP, PBS pH 7.4; blank beads control. The settings on record: tags: none; denatured with 1% surfactant and reduced with DTT or TCEP; label: 5'-fluorescein (gel shift) or 5'-thiol-hexaethylene glycol on magnetic beads (pull-down). As for the experimental part: Pull-down. HSA (2 mg/mL from Gemini) was denatured in 1% surfactant (either Tween 80 or SDS) and 50 mM DTT in PBS (pH=7.4) for 1 hr. The binding buffers consisted of 50 mM freshly prepared DTT. The beads were equilibrated with 2 mL of the binding buffer used during the pull-down prior to protein addition. Protein (40 μg/mL) was then added to the columns and these were placed on a nutating mixer for 1 hr. The samples were then placed on the magnetic separation stand for 4 min, and the supernatant was removed. The beads were then washed twice with 1 mL binding buffer, collecting the supernatant each time. Bound protein was eluted using 300 μL of 4M urea with 0.1% surfactant and repeated to recover all bound protein. For each elution, the beads were incubated at 95° C. for 10 min. The beads were regenerated by rinsing with 1 mL of 1M NaCl followed by 2 mL of PBS. They were then stored in PBS in the refrigerator.
The aliquots were then concentrated using a 10 kDa Amicon spin filter. The samples were run on a NuPAGE™ Novex™ 4-12% Bis-Tris protein gel at 200 V for 40 min and stained with Spyro Ruby. The gels were visualized with a Typhoon FLA 9500 gel imager using a 473 nm laser and an LPG filter. FIG. 13 is a gel showing the results of the pull down (using nucleic acid 36) of HSA denatured with SDS (upper image) or Tween 80 (lower image) and reduced with DTT.
HSA binding with TCEP. […]

The target is the same in data set [3]. The experiment in a line: EMSA; tested in lane 4, not listed among binders; PBS pH 6, 50 mM DTT, 1% SDS. The conditions noted are these: tags: none; denatured with 1% surfactant and reduced with DTT or TCEP; label: 5'-fluorescein. The method, then: as §1
Data set [4] shares this target. Nature of the data set: EMSA; tested in lane 6, not listed among binders; PBS pH 6, 50 mM DTT, 1% SDS. The settings on record: tags: none; denatured with 1% surfactant and reduced with DTT or TCEP; label: 5'-fluorescein. The method, then:
as §1

Data set [5] shares this target. The experiment in a line: pulldown; 1% surfactant, 50 mM DTT or 25 mM TCEP, PBS pH 7.4, 40 ug/mL HSA. The settings on record: tags: none; denatured with 1% surfactant and reduced with DTT or TCEP; label: 5'-fluorescein (gel shift) or 5'-thiol-hexaethylene glycol on agarose (pull-down). The method, then:
The beads were equilibrated with 3 bed volumes of the binding buffer used during the pull-down prior to protein addition. Protein (40 μg/mL) was then added to the columns and placed on a nutating mixer for 45 min followed by 15 minutes of stationary incubation. The supernatant was then collected via centrifugation. The resin was then washed twice with 700 μL binding buffer, collecting the flow-through each time. Bound protein was then eluted using 300 μL 4 M urea with 0.1% surfactant and repeated to recover all bound protein. For each elution, the column was placed on a nutating mixer for 30 min. The A280 was then measured for each aliquot to determine the percent bound.

Data set [6] shares this target. Nature of the data set: EMSA; tested in lane 1, not listed among binders; PBS pH 6, 50 mM DTT, 1% SDS. The conditions noted are these: tags: none; denatured with 1% surfactant and reduced with DTT or TCEP; label: 5'-fluorescein. As for the experimental part:
as §1

Data set [7] has the same target. The experiment in a line: EMSA; tested in lane 5, not listed among binders; PBS pH 6, 50 mM DTT, 1% SDS. The conditions noted are these: tags: none; denatured with 1% surfactant and reduced with DTT or TCEP; label: 5'-fluorescein. The method, then:
as §1

B1: H5 (ssDNA)
DNA: GCGCATACCAGCTTATTCAATTAGGAACGCACCCGAGTGTTGCGCGAGCCAGTGGCTGGTTGGCCCGTATAAGATAGTAAGTGCAATCTCGGC
With B1, the binding result in data set [1] was “no binding”.

B2: 36 (ssDNA)
DNA: GCGCATACCAGCTTATTCAATTCGGATAGACAACATGGGGAAGAACAGTGTCTAGTCGTGGGTTGCTCTGTAAGATAGTAAGTGCAATCTCGGC
With B2, in data set [2], the binding result is reported as “binds”.

B3: H1 (ssDNA)
DNA: GCGCATACCAGCTTATTCAATTACGCTCAGGACTAAAAATGGGCGTGACCATGAGCTCAGTATGGGCGTTACAGATAGTAAGTGCAATCTCGGC
Take B3: the binding result in data set [3] was “no binding”.

B4: H3 (ssDNA)
DNA: GCGCATACCAGCTTATTCAATTGATCCATACAAGGGTAGGTTGACTTCCGCCCAAGGGGGCGAGGCCGTGAGATAGTAAGTGCAATCTCGGC
B4: the binding result in data set [4] is on record as “no binding”.

B5: 19 (ssDNA)
DNA: GCGCATACCAGCTTATTCAATTAACGTGTAGAGGTGTTCACGCACCACGCCGACTGTGGTTGACCCACAGTTAGATAGTAAGTGCAATCTCGGC
For the molecule B5, the binding signal in data set [5] came to 10.3 % HSA bound.

B6: 35 (ssDNA)
DNA: GCGCATACCAGCTTATTCAATTCGGTACGTGACGCAAAAAAGGTCGGGCGGCTGACATGGCACCTCGTCTAAAGATAGTAAGTGCAATCTCGGC
Regarding B6, the binding result in data set [6] is “no binding”.

B7: 40 (ssDNA)
DNA: GCGCATACCAGCTTATTCAATTCGGTAGTGCAGCGGCTTGAAATCAGCCGTGCTTTCGGGACGGAACTACTCAGATAGTAAGTGCAATCTCGGC
For B7, the binding signal in data set [5] amounted to 10.3 % HSA bound.

B8: H6 (ssDNA)
DNA: GCGCATACCAGCTTATTCAATTGCGTACCTAGGATTTACTTTCTCAAGATATTTGGAGTGACAAGTGGCATAAGATAGTAAGTGCAATCTCGGC
As to B8, the binding signal in data set [5] was determined as 10 % HSA bound.

B9: H2 (ssDNA)
DNA: GCGCATACCAGCTTATTCAATTTCAAAGGCTGACCGGATGGGCTTCGTGACCGGGTACGCCACTGCCTCGTGAGATAGTAAGTGCAATCTCGGC
Regarding B9, in data set [7], the binding result is “no binding”.

B10: P1 (ssDNA)
DNA: GCGCATACCAGCTTATTCAATTGCATAGTCATGCGGGAATAGTTTTCGATGAGGGCTATTGGAGGCCCCAGCAGATAGTAAGTGCAATCTCGGC
For the molecule B10, the binding signal in data set [5] turned out to be 12.7 % HSA bound.
